Measurements published in the DeepSol protein solubility set.

experiment: soluble on expression in E. coli; label from the status in PepcDB or PDB records

Sequence | soluble on expression in E. coli
SKVKVAVRIRPMNRRETDLHTKCVVDVDANKVILNPVNTNLSKGDARGQPKVFAYDHCFWSMDESVKEKYAGQDIVFKCLGENILQNAFDGYNACIFAYGQTGSGKSYTMMGTADQPGLIPRLCSGLFERTQKEENEEQSFKVEVSYMEIYNEKVRDLLDPKGSRQTLKVREHSVLGPYVDGLSKLAVTSYKDIESLMSEGNKSRTVAATNMNEESSRSHAVFKITLTHTLYDVKSGTSGEKVGKLSLVDLAGSERATKTGAAGDRLKEGSNINKSLTTLGLVISALADQSAGKNKNKFVPYRDSVLTWLLKDSLGGNSKTAMVATVSPAADNYDETLSTLRYADRAKHHHHHH | soluble
MIRILLSNDDGISAPGIQTLASALRGFAQVQIVAPDRNRSGASNALTLDSALRITTLSNGDIAVQQGTPTDCVYLGVNALMRPRPDIVVSGINAGPNLGDDVIYSGTVAAAMEGRHLGYPALAVSLNGHQHYDTAAAVTCRLLRALQRKPLRTGKILNINVPDLPLAEIKGIRVTRCGSRHPAEQVFCQQDPRGQDLYWIGPPGEKYDAGPDTDFAAVEQGYVSITPLQVDLTAYMAQEVVESWLANTEVDGEW | not soluble
MGSDKIHHHHHHMDTKQTFLEDLKSRDNIKLSLMVMKIIFRETDKLICILADRTGEIKASVPLKDGDIKQGMVIQINGSKNVNLEVKSYKIIRDYNISDYLPTVKRPIEDIMNEIELYTNKYVLSKEGRALNDYFFKDEEFLEKFKKGIGGVSMHHNYIGGLAEHTLNVMKITAKLSEKYKCRRMEVAVLAAKLHDIGKVYEYDCNGPFKYTMRGQMEGHIVIGVELVDRAVRENLNLYPEDFVNRIKGCIVQHHGKLEFGSPREMNMEESFIINYADSIDATMNKISQLKEKTEPDTWSEFDRRIERKLYL | not soluble
KEEELVSDEEIGVKISLTGLKGGHSGVDIHLGRANANKLMFRFLKEAVGFYGARLAWVEGGSLRNAIPREAFAVITIQEEEAEAVWELVSDYQDLFRKEFSGIEENIKFEASRIECPRMIIPEEIQDCLINAVEACVNGPQSMLQDFPGTVESSSNLALITAKEGSISVRFLVRSSSESHKMWVASAIESVFSLAGARVEFDASYNGWQPNIQSHILEVMSKVFEEYYGQKPEVQVMHAGLECGIIQGVMPDMDMISVGPELQSPHSPDERIHIESVARTWEVLVKVLERV | not soluble
MKKALQVAMFSLFTVIGFNAQANEHHHETMSEAQPQVISATGVVKGIDLESKKITIHHDPIAAVNWPEMTMRFTITPQTKMSEIKTGDKVAFNFVQQGNLSLLQDIKVSQ | soluble
MGVFTFQDEYTSTIAPAKLYKALVTDADIIIPKAVETIQSVEIVEGNGGPGTIKKLTFIEGGESKYVLHKIEAIDEANLGYNYSIVGGVGLPDTIEKISFETKLVEGANGGSIGKVTIKIETKGDAQPNEEEGKAAKARGDAFFKAIESYLSAHPDYN | soluble
VAIDTVITDMDGTLLVKKGDQIHPLNKEVLINWQADGKKLFLATGRLDLAILPFIHELNIKTPVISCNGGLVRDFTTGEILYKSNIELDLVHTVLETLEPLGVNYHIYTTERIIGPTNTGKIAFFNELNKTLSENEQVPITLTTDPFSVLREGEFPLKVLVIESDLEKRAEIKAALQGLPLSVLASASNLIDIMNEGIDKAKGLTYLADNGYINLNSTIAFGDNENDVGMIELAEIGVAMENGIPLALEKADKIAKHHDIGGLGLFMQEEIL | not soluble
MTDYDLAKETAAWLNKQLQIRPVLGIVCGSGLGKIGDSLETSITVAYSDIPNFPVGSVKGHAGSLIFGSVNGVSCVCMKGRFHLYEGHTAARATFPMRVFKALGVKIVVLTNAAGGLNPSYRPGDFMVVRDHINLPGLAGANPLTGPNDDTEGERFPSMTSVYDKTLRKYAISAARELGMSYATHEGVYCCVNGPSFETPAECKILRLMGSDAVGMSTAPETIVAKHGGMRCLAVSLISNVIASNCETPAEPTHEEVLRAGEEASARMTALVKLVIEKIRGELPR | soluble
MGSDKIHHHHHHMIHFVPPHLEKVRAKLPEIAPTVDVILANLEDAIPADAKGAALAGLVAMSREVDFKALGVGFWTRINCLNSPWHLDEIATIVEKAGDKIDVIMVPKVEGPWDIFYMDQLLASLEAKHGVTRPILLHAILETAEGVMNVEAIAAASPRMQGISLGPADLAASRAMKTTRVGGGHPGYRVIEDPHADGSARVSVQQDLWHYTFAKMVDACAAHGIKPFYGPFGAIDDPVACEQQFRNAFLMGCAGAWSLHPSQIEIAKRVFSPDPAEVAFAKKILEAMPDGTGVAMIDGKMQDDATWKQAKVMVDCARQIAGKDAEYAGLYGL | not soluble
GHMVTMSTEPVSASDKYQKISQLEHILKRPDTYIGSVETQEQLQWIYDEETDCMIEKNVTIVPGLFKIFDEILVNAADNKVRDPSMKRIDVNIHAEEHTIEVKNDGKGIPIEIHNKENIYIPEMIFGHLLTSSNYDDDEKKVTGGRNGYGAKLCNIFSTEFILETADLNVGQKYVQKWENNMSICHPPKITSYKKGPSYTKVTFKPDLTRFGMKELDNDILGVMRRRVYDINGSVRDINVYLNGKSLKIRNFKNYVELYLKSLEKKRQLDNGEDGAAKSDIPTILYERINNRWEVAFAVSDISFQQISFVNSIATTMGGTHVNYITDQIVKKISEILKKKKKKSVKSFQIKNNMFIFINCLIENPAFTSQTKEQLTTRVKDFGSRCEIPLEYINKIMKTDLATRMFEIADANEENALK | soluble
MGHHHHHHSHLPTTNIGSFPQTTEIRHARASFKKGELSLADYEAAMKKEIEYVVRRQEELDLDVLVHGEAERNDMVEYFGELLDGFAFTKFGWVQSYGSRCVKPPVIYGDVTRPEPMTVRWSQYAQSLTNRVMKGMLTGPVTILQWSFVRNDIPRSTVCKQIGVALSDEVLDLEAAGIKVIQIDEPAIREGLPLKRADWDAYLQWAGEAFRLSSMGVQDDTQIHTHMCYSEFNDILPAIAALDADVITIETSRSDMELLTAFADFKYPNDIGPGVYDIHSPRVPTATEVEHLLRKALNVIPKERLWVNPDCGLKTRGWTETIDQLKVMVDVTKK | not soluble
MSLSSVYTMKRIWLQKDKKAYQAWHELMEKAELQTTEALDYTVGIYDDTALIASGSLSGKTIKCVAVCKKYQSENLLTQLVVHLLEKLREENQLHSFLYTKPKNEQIFQSLGFQKVVANQEVLFMEQGKPDFADYLGYLTQHKKAGPASSIVMNANPFTKGHQYLVEKAAQESPHVYVFVLSEDKSLFSKEARFAMVQKGVAHLPNVTVLSTEDYLVSSATFPTYFLKEKAPLEVAAIQATLDATLFKERIAPILEIQQRYVGEEPYSEVTAVYNQAMQQVFGQTITLTIVPRLASDGELISATKVRKAMAEGDKETLKKFLPATSYQYLVEHKKLMREGGSHHHHHH | soluble
MADRAEMFSLSTFHSLSPPGCRPPQDISLEEFDDEDLSEITDDCGLGLSYDSDHCEKDSLSLGRSEQPHPICSFQDDFQEFEMIDDNEEEDDEEEEEEEEEEEDGDRQGKAGGGPGSQALAGDSLIPSPSLEESHKLRPTTLHLTTLGAQDSLNNNNGGFTSAPPSSWQETVLRSPAQEPLKELPAPLLPAEEERHEVQSLARPGCDCEGNQPPEQPASSGGASPSSDPGIEADLRSHSSGGHEGRRSSQELSSPGSDSEDAGGARLGRMISSISETELELSSDGGSSSGRSSHLTNSIEEASSPASEPEPEPEPLHEPPRRPAFLPVGQDDTNSEYESGSESEPDLSEDADSPWLLSNLVSRMISEGSSPIRCPGQCLSPAPRLPEEAASQANSVPQDCQDPEAGPHVELVDMDTLCGPPPPAPAAPRLGPAQPGPCLFLSNPTRDTITPLWATPGRTARPGRSCSAACSEEEEEDEEEDEEDEEDAEDSVVPPGSRTTGSTAPLDASLVYDAVKYTLVVDEHTQLELVSLRRCAGLGNDSEEDSSCEASEEEAGATLLGSDQVPEDASPDSPDLTFSKKFLNVFVNSTSRSSSTESFGLFSCVVNGEEREQTHRAVFRFIPRHPDELELDVDDPVLVEAEEDDFWFRGFNMRTGERGVFPAFYAHAVPGPAKDLLGSKRSPCWVDRFDVQFLGSVEVP | soluble
MVEVPSFRSNEHFPQLCDKVTVKWDKKRGRFVEAIEDIPIGTVVCVETGITVNVDPQNCYRCLKITENASFAYCKNCEEFYEPDEIACGEFDELGIFKLAAHLVFSYPFADIASLVQSSDPEPPSCAPKALSTQDIEAIFQLTPFPEIGEAFKAPAIQNAIKRIVESLETDENWGRLDQISRTMTFTKALRIMAERSAKNAHTIYSIEQIESQEDNLPMATGLFPISSIFNHSCTPNISGFFVRNTFIFVSQGVRAREELLDSYGVTYHQHTFEQRTNFLASVSGFICHCESCFKMKSLKVLEKPKKYPETIATNASCFTDITSYTENIPRGSKELENLIIAFARRPDSETYTELIFQFWKKFVENAKFRGITYDPYLVRPYVEMTILAWNKEVGCENEEKMSLLIVTHRLLRNCYVDLHPLSELVVKLVNVVANQNADEINRTLEKLKLRARMLWKYSEQSEDL | not soluble
MTMSELGSLFEAGYHDILQLLAGQGKSPSGPPFARYFGMSAGTFEVEFGFPVEGGVEGSGRVVTGLTPSGKAASSLYIGPYGEIEAVYDALMKWVDDNGFDLSGEAYEIYLDNPAETAPDQLRTRVSLEHHHHHH | not soluble
MSKEKYSFEDLIKVMEELRKKCPWDREQTHESLKKYLIEEAYEVLDAIDSKDDEKLKEELGDLLLQVVFHSQIAKERGAFDINDVIDTLVKKLIERHPHVFGCANPEDVLKNWEKKKMEKRKSIFEGIPKHLPALMRSQKLQDRTSQVGFDFQDISQVFEKIQEEINELKESLEKGDRENIKHEIGDILTAVVELARFVNVDAEEALQEANERFIRRFSYIEKKAKEEGRKLEDMSLEEMDKLWMEAKKLEEQGKLS | soluble
MSVELRDATVDDLSGIMEIYNDAVVNTTAIWNEVVVDLENRKDWFAARTSRGFPVIVAILDGKVAGYASYGDWRAFDGYRHTREHSVYVHKDARGHGIGKRLMQALIDHAGGNDVHVLIAAIEAENTASIRLHESLGFRVVGRFSEVGTKFGRWLDLTCMELKLG | not soluble
DSQDWHDWIDQALTERRLLLYFQPVVDCLDTQRVLHHKVLARLLDPQATAIAAGRFLPWIERFGWAARMDLAMLEQSLEHLRRHPRPLALSLSAASVRNAQTFAPLLALLKAHPQEARQLTLELDERHLPAAAELERLSQVLRELGCGLGLQHFGGRFSLIGNLTHLGLAYLKLDGCYLHAVDREGDKRLFIEAVYRTTHSIDLPLIAEQVETLGELEVLREMGLRGAMGRLFGSPAPWSGDA | soluble
MAHHHHHHMRRSSSCLYKIPKNTGVAPRFDTWNEKYEPWEHLKRMGRLAGTGFYIPPEWYNHFRMFPPINHNFQQEKTLNPHNVSEPTQDDTDYLSVERIALRDELARKSRLLASEGMRYYNVFWIRKPLDRMERHYYELERKGVAHSVAIKRVLQMFYDELTVKKRVAAIQAEEAKLSGKYISMREATVLMGVLTQLQKEQLTPHQVTLLAKEQREKAQAGEAFAATVERSTETVADAAKDAAEGDEVMSADSLAELLSTEADLDDSSPSISYKVTIHETEHDSVKQLQELALDHTGKSDWYTGASPVLHMEEAMPAKRTPASKKTES | not soluble
THILTLTSGFHLWSHTENSGKKSKIIAVHGGPGETHESFETLPLGVPNAEITSYDQLGSWYSDQPDFSDPKLAKKYLRIEYFVNELEEVRRQLEYDKFILLGYSWGAMIALEYALKYPGNLDKLVIVGMSDRESDFTDRMKDEVAKVLSKDEAKYVFTEAKKGELDDPLFNQFMEKFYNDYYSRFSKSQSKHAIDISNYQVANYMMGTNPFHTEGMMSGWNVSDKLYRIKTPTLILVGDQDMISPKKARVMADKLPNGKLEIIPDATHVSLRDNPEYFFQQLNQFLTN | not soluble
